Reference: FireProtDB (doi:10.1021/acs.biochem.5b01204)
“And” between values parts separate entries of the source, which are not always exact repeats. Equal values may be shown once.

Conditions: Enterobacteria phage T4, pH 7.4, Sodium Phosphate Buffer, whole UniProt chain shown; for denaturant midpoint (higher = more stable): 25 °C, Urea

B1: Sliding clamp wild type, P04525 (protein)
chain: MKLSKDTTALLKNFATINSGIMLKSGQFIMTRAVNGTTYAEANISDVIDFDVAIYDLNGFLGILSLVNDDAEISQSEDGNIKIADARSTIFWPAADPSTVVAPNKPIPFPVASAVTEIKAEDLQQLLRVSRGLQIDTIAITVKEGKIVINGFNKVEDSALTRVKYSLTLGDYDGENTFNFIINMANMKMQPGNYKLLLWAKGKQGAAKFEGEHANYVVALEADSTHDF
denaturant midpoint (higher = more stable) (CD, transition: 3, reversible: yes): 2.6 M and 5.7 M | denaturant midpoint (higher = more stable) (CD): 5.8 M and 2.5 M | denaturant midpoint (higher = more stable) (fluorescence, transition: 3, reversible: yes): 2.7 M and 5.7 M | denaturant midpoint (higher = more stable) (fluorescence): 5.9 M | Tm (Thermal, DSC, reversible: no): 52.3 °C | unfolding enthalpy (calorimetric) (Thermal, DSC, reversible: no): 83.6 kcal/mol | unfolding enthalpy (van 't Hoff) (Thermal, DSC, reversible: no): 259 kcal/mol
